Data as given in patent publication US20050118183A1 (IMMUNOGEN, published 2005).

B1: My9-6-DM1 immunoconjugate (antibody, IgG1, V domains shown)
VH: QVQLQQPGAEVVKPGASVKMSCKASGYTFTSYYIHWIKQTPGQGLEWVGVIYPGNDDISYNQKFKGKATLTADKSSTTAYMQLSSLTSEDSAVYYCAREVRLRYFDVWGAGTTVTVSS
VL: NIMLTQSPSSLAVSAGEKVTMSCKSSQSVFFSSSQKNYLAWYQQIPGQSPKLLIYWASTRESGVPDRFTGSGSGTDFTLTISSVQSEDLAIYYCHQYLSSRTFGGGTKLEIKR
modifications: DM1 (thiol-containing maytansinoid) linked by disulfide through SPP; 3-5 pyridyldithio groups introduced per molecule of antibody; residues and chain not stated

Assays:
CD33 (human) [1] = biological target: CD33 (human) (UniProt P20138); test: direct binding on HL-60 whole cells; direct on cells
CD33 (human) [2] = biological target: CD33 (human) (UniProt P20138); test: direct binding on HL-60 membranes; direct on membranes
CD33 (human) [3] = biological target: CD33 (human) (UniProt P20138); test: competitive binding on HL-60 membranes; competitive on membranes
CD33 = biological target: T1, CD33 (human, UniProt P20138 18-364); test: flow cytometry on HL-60 cells
T1 construct: whole, on cells; Presented on U-937 cells, HL-60 whole cells, dried HL-60 plasma membranes, THP-1 cells and CD33-transfected 3T3 murine fibroblasts; also called CD33 antigen; human CD33
Procedure: HL-60 cells were incubated with various concentrations of either My9-6 antibody or My9-6-DM1. The cells were then washed and incubated with a secondary FITC-labeled anti-murine IgG antibody. Following an additional wash, cells were fixed with 2% formaldehyde and cell-associated fluorescence was quantified using a BD FACScan flow cytometer.

Chain of CD33 (human) (P20138 18-364): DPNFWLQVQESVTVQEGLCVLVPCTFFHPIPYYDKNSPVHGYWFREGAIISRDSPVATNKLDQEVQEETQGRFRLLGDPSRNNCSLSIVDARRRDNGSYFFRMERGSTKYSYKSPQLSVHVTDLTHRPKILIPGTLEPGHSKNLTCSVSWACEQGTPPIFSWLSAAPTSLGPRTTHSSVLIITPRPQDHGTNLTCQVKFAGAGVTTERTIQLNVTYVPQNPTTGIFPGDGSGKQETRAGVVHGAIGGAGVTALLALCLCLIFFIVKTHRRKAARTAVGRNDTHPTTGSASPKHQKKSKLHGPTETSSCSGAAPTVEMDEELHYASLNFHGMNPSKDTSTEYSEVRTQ
T1 sequence (P20138 18-364): as above

Row | Molecule | Kd (CD33 (human) [1]) | Kd (CD33 (human) [2]) | Kd (CD33 (human) [3]) | binding result (CD33)
1 | murine My9-6 antibody | 1.1 nM | 0.0513 nM | 0.174 nM | –
2 | B1 | – | – | – | binds
